Data on 6 variants can be found in paper PMC5850324, “Interactions between the Hepatitis C Virus Nonstructural 2 Protein and Host Adaptor Proteins 1 and 4 Orchestrate Virus Release” (mBio, 2018).

The labels stand for the following.
B1: GLuc2-NS2 (hepatitis C virus nonstructural 2 protein, wild type) [hepatitis C virus (J6/JFH genome)] / GLuc1-tagged μ subunit of the AP-4 complex [not stated] (parent complex)
chain 1: YDASVHGQIGAALLVLITLFTLTPGYKTLLSRFLWWLCYLLTLAEAMVQEWAPPMQVRGGRDGIIWAVAIFCPGVVFDITKWLLAVLGPAYLLKGALTRVPYFVRAHALLRMCTMVRHLAGGRYVQMVLLALGRWTGTYIYDHLTPMSDWAANGLRDLAVAVEPIIFSPMEKKVIVWGAETAACGDILHGLPVSARLGREVLLGPADGYTSKGWSLL
chain 2: MISQFFILSSKGDPLIYKDFRGDSGGRDVAELFYRKLTGLPGDESPVVMHHHGRHFIHIRHSGLYLVVTTSENVSPFSLLELLSRLATLLGDYCGSLGEGTISRNVALVYELLDEVLDYGYVQTTSTEMLRNFIQTEAVVSKPFSLFDLSSVGLFGAETQQSKVAPSSAASRPVLSSRSDQSQKNEVFLDVVERLSVLIASNGSLLKVDVQGEIRLKSFLPSGSEMRIGLTEEFCVGKSELRGYGPGIRVDEVSFHSSVNLDEFESHRILRLQPPQGELTVMRYQLSDDLPSPLPFRLFPSVQWDRGSGRLQVYLKLRCDLLSKSQALNVRLHLPLPRGVVSLSQELSSPEQKAELAEGALRWDLPRVQGGSQLSGLFQMDVPGPPGPPSHGLSTSASPLGLGPASLSFELPRHTCSGLQVRFLRLAFRPCGNANPHKWVRHLSHSDAYVIRI

The test covers variants of B1. Put plainly: PCA (protein-fragment complementation assay); parent: 1; read off a plot.
Regarding chain 1 E200A, the ratio to parent was about 1.

Regarding chain 1 D207A, the ratio to parent is about 0.6.

Consider chain 1 L217A, for which the ratio to parent was about 0.52.

For the variant chain 1 L216A, the ratio to parent was about 0.56.

With chain 1 L202A, the ratio to parent was about 0.57.

As for chain 1 L203A, the ratio to parent was about 0.62.
